Experimental data taken from patent US20210388087A1 (Chugai, published 2021).
Numbering of substitutions follows the chain as printed. Blank lines part the entries; values can stand above or below the binder they belong to.

Target: T1, CD3 epsilon homodimer protein (UniProt P07766 23-126)
T1 construct: also called CD3 (CD3 epsilon)
Test: SPR Biacore T200, CD3e homodimer on chip, vs unaltered GLS3000 antibody

T1 sequence (P07766 23-126): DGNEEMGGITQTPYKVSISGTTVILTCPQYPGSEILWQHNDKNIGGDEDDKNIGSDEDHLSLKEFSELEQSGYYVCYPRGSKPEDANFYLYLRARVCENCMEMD

ratio of amounts bound (Z=Y/X): 0.8
B1: GLS3000 F55M (antibody, name in Kabat numbering, V domains shown)
VH: QVQLVESGGGVVQPGRSLRLSCAASGFTFSNAWMHWVRQAPGKGLEWVAQIKAKSNNYATYYAESVKGRFTISRDDSKNSLYLQMNSLKTEDTAVYYCRYVHYGAYYGVDAWGQGTTVTVSS
VL: DIVMTQSPLSLPVTPGEPASISCRSSQSLVHSNRNTYLHWYQQKPGQAPRLLIYKVSNRMSGVPDRFSGSGSGTDFTLKISRVEAEDVGVYYCGQGTQVPYTFGQGTKLEIK
notes: one-arm IgG as m2

ratio of amounts bound (Z=Y/X): 0.24
B2: GLS3000 H27dP (antibody, name in Kabat numbering, V domains shown)
VH: B1 VH
VL: B1 VL with H31P, M60F
notes: one-arm IgG as m2

ratio of amounts bound (Z=Y/X): 0.26
B3: GLS3000 G89E (antibody, name in Kabat numbering, V domains shown)
VH: B1 VH
VL: B1 VL with M60F, G94E
notes: one-arm IgG as m2

ratio of amounts bound (Z=Y/X): 0.27
B4: GLS3000 G91P (antibody, name in Kabat numbering, V domains shown)
VH: B1 VH
VL: B1 VL with M60F, G96P
notes: one-arm IgG as m2

ratio of amounts bound (Z=Y/X): 0.91
B5: GLS3000 F55Q (antibody, name in Kabat numbering, V domains shown)
VH: B1 VH
VL: B1 VL with M60Q
notes: one-arm IgG as m2

ratio of amounts bound (Z=Y/X): 0.71
B6: GLS3000 F55V (antibody, name in Kabat numbering, V domains shown)
VH: B1 VH
VL: B1 VL with M60V
notes: one-arm IgG as m2

ratio of amounts bound (Z=Y/X): 1.09
B7: GLS3000 G89F (antibody, name in Kabat numbering, V domains shown)
VH: B1 VH
VL: B1 VL with M60F, G94F
notes: one-arm IgG as m2

ratio of amounts bound (Z=Y/X): 0.63
B8: GLS3000 H27dF (antibody, name in Kabat numbering, V domains shown)
VH: B1 VH
VL: B1 VL with H31F, M60F
notes: one-arm IgG as m2

ratio of amounts bound (Z=Y/X): 0.16
B9: GLS3000 G91E (antibody, name in Kabat numbering, V domains shown)
VH: B1 VH
VL: B1 VL with M60F, G96E
notes: one-arm IgG as m2

ratio of amounts bound (Z=Y/X): 0.3
B10: GLS3000 H27dG (antibody, name in Kabat numbering, V domains shown)
VH: B1 VH
VL: B1 VL with H31G, M60F
notes: one-arm IgG as m2

ratio of amounts bound (Z=Y/X): 0.5
B11: GLS3000 G89W (antibody, name in Kabat numbering, V domains shown)
VH: B1 VH
VL: B1 VL with M60F, G94W
notes: one-arm IgG as m2

ratio of amounts bound (Z=Y/X): 0.26
B12: GLS3000 H27dI (antibody, name in Kabat numbering, V domains shown)
VH: B1 VH
VL: B1 VL with H31I, M60F
notes: one-arm IgG as m2

ratio of amounts bound (Z=Y/X): 0.98
B13: GLS3000 F55N (antibody, name in Kabat numbering, V domains shown)
VH: B1 VH
VL: B1 VL with M60N
notes: one-arm IgG as m2

ratio of amounts bound (Z=Y/X): 0.4
B14: GLS3000 G89K (antibody, name in Kabat numbering, V domains shown)
VH: B1 VH
VL: B1 VL with M60F, G94K
notes: one-arm IgG as m2

ratio of amounts bound (Z=Y/X): 1.16
B15: GLS3000 F55P (antibody, name in Kabat numbering, V domains shown)
VH: B1 VH
VL: B1 VL with M60P
notes: one-arm IgG as m2

ratio of amounts bound (Z=Y/X): 0.35
B16: GLS3000 G89P (antibody, name in Kabat numbering, V domains shown)
VH: B1 VH
VL: B1 VL with M60F, G94P
notes: one-arm IgG as m2

ratio of amounts bound (Z=Y/X): 0.17
B17: GLS3000 G91Y (antibody, name in Kabat numbering, V domains shown)
VH: B1 VH
VL: B1 VL with M60F, G96Y
notes: one-arm IgG as m2

ratio of amounts bound (Z=Y/X): 0.69
B18: GLS3000 F55S (antibody, name in Kabat numbering, V domains shown)
VH: B1 VH
VL: B1 VL with M60S
notes: one-arm IgG as m2

ratio of amounts bound (Z=Y/X): 0.31
B19: GLS3000 H27dR (antibody, name in Kabat numbering, V domains shown)
VH: B1 VH
VL: B1 VL with H31R, M60F
notes: one-arm IgG as m2

ratio of amounts bound (Z=Y/X): 1.31
B20: GLS3000 F55R (antibody, name in Kabat numbering, V domains shown)
VH: B1 VH
VL: B1 VL with M60R
notes: one-arm IgG as m2

ratio of amounts bound (Z=Y/X): 1.13
B21: GLS3000 G89A (antibody, name in Kabat numbering, V domains shown)
VH: B1 VH
VL: B1 VL with M60F, G94A
notes: one-arm IgG as m2

ratio of amounts bound (Z=Y/X): 0.69
B22: GLS3000 F55W (antibody, name in Kabat numbering, V domains shown)
VH: B1 VH
VL: B1 VL with M60W
notes: one-arm IgG as m2

ratio of amounts bound (Z=Y/X): 0.27
B23: GLS3000 G91A (antibody, name in Kabat numbering, V domains shown)
VH: B1 VH
VL: B1 VL with M60F, G96A
notes: one-arm IgG as m2

ratio of amounts bound (Z=Y/X): 1.63
B24: GLS3000 G89V (antibody, name in Kabat numbering, V domains shown)
VH: B1 VH
VL: B1 VL with M60F, G94V
notes: one-arm IgG as m2

ratio of amounts bound (Z=Y/X): 0.23
B25: GLS3000 H27dE (antibody, name in Kabat numbering, V domains shown)
VH: B1 VH
VL: B1 VL with H31E, M60F
notes: one-arm IgG as m2

ratio of amounts bound (Z=Y/X): 1.03
B26: GLS3000 G89T (antibody, name in Kabat numbering, V domains shown)
VH: B1 VH
VL: B1 VL with M60F, G94T
notes: one-arm IgG as m2

ratio of amounts bound (Z=Y/X): 0.8
B27: GLS3000 G89N (antibody, name in Kabat numbering, V domains shown)
VH: B1 VH
VL: B1 VL with M60F, G94N
notes: one-arm IgG as m2

ratio of amounts bound (Z=Y/X): 0.92
B28: GLS3000 F55Y (antibody, name in Kabat numbering, V domains shown)
VH: B1 VH
VL: B1 VL with M60Y
notes: one-arm IgG as m2

ratio of amounts bound (Z=Y/X): 0.52
B29: GLS3000 G89M (antibody, name in Kabat numbering, V domains shown)
VH: B1 VH
VL: B1 VL with M60F, G94M
notes: one-arm IgG as m2

ratio of amounts bound (Z=Y/X): 0.41
B30: GLS3000 F55T (antibody, name in Kabat numbering, V domains shown)
VH: B1 VH
VL: B1 VL with M60T
notes: one-arm IgG as m2

ratio of amounts bound (Z=Y/X): 1.19
B31: GLS3000 G89Y (antibody, name in Kabat numbering, V domains shown)
VH: B1 VH
VL: B1 VL with M60F, G94Y
notes: one-arm IgG as m2

ratio of amounts bound (Z=Y/X): 0.94
B32: GLS3000 G89L (antibody, name in Kabat numbering, V domains shown)
VH: B1 VH
VL: B1 VL with M60F, G94L
notes: one-arm IgG as m2

ratio of amounts bound (Z=Y/X): 0.7
B33: GLS3000 G89H (antibody, name in Kabat numbering, V domains shown)
VH: B1 VH
VL: B1 VL with M60F, G94H
notes: one-arm IgG as m2

ratio of amounts bound (Z=Y/X): 0.3
B34: GLS3000 H27dL (antibody, name in Kabat numbering, V domains shown)
VH: B1 VH
VL: B1 VL with H31L, M60F
notes: one-arm IgG as m2

ratio of amounts bound (Z=Y/X): 0.16
B35: GLS3000 G91D (antibody, name in Kabat numbering, V domains shown)
VH: B1 VH
VL: B1 VL with M60F, G96D
notes: one-arm IgG as m2

ratio of amounts bound (Z=Y/X): 0.25
B36: GLS3000 H27dQ (antibody, name in Kabat numbering, V domains shown)
VH: B1 VH
VL: B1 VL with H31Q, M60F
notes: one-arm IgG as m2

ratio of amounts bound (Z=Y/X): 0.33
B37: GLS3000 G89D (antibody, name in Kabat numbering, V domains shown)
VH: B1 VH
VL: B1 VL with M60F, G94D
notes: one-arm IgG as m2

ratio of amounts bound (Z=Y/X): 0.22
B38: GLS3000 H27dD (antibody, name in Kabat numbering, V domains shown)
VH: B1 VH
VL: B1 VL with H31D, M60F
notes: one-arm IgG as m2

ratio of amounts bound (Z=Y/X): 0.19
B39: GLS3000 G89R (antibody, name in Kabat numbering, V domains shown)
VH: B1 VH
VL: B1 VL with M60F, G94R
notes: one-arm IgG as m2

ratio of amounts bound (Z=Y/X): 0.38
B40: GLS3000 G89Q (antibody, name in Kabat numbering, V domains shown)
VH: B1 VH
VL: B1 VL with M60F, G94Q
notes: one-arm IgG as m2

ratio of amounts bound (Z=Y/X): 0.3
B41: GLS3000 H27dM (antibody, name in Kabat numbering, V domains shown)
VH: B1 VH
VL: B1 VL with H31M, M60F
notes: one-arm IgG as m2

ratio of amounts bound (Z=Y/X): 0.29
B42: GLS3000 H27dK (antibody, name in Kabat numbering, V domains shown)
VH: B1 VH
VL: B1 VL with H31K, M60F
notes: one-arm IgG as m2

ratio of amounts bound (Z=Y/X): 0.3
B43: GLS3000 H27dN (antibody, name in Kabat numbering, V domains shown)
VH: B1 VH
VL: B1 VL with H31N, M60F
notes: one-arm IgG as m2

ratio of amounts bound (Z=Y/X): 1.07
B44: GLS3000 G89I (antibody, name in Kabat numbering, V domains shown)
VH: B1 VH
VL: B1 VL with M60F, G94I
notes: one-arm IgG as m2

ratio of amounts bound (Z=Y/X): 0.26
B45: GLS3000 G91T (antibody, name in Kabat numbering, V domains shown)
VH: B1 VH
VL: B1 VL with M60F, G96T
notes: one-arm IgG as m2

ratio of amounts bound (Z=Y/X): 0.26
B46: GLS3000 G91S (antibody, name in Kabat numbering, V domains shown)
VH: B1 VH
VL: B1 VL with M60F, G96S
notes: one-arm IgG as m2
